{"source": "paper PMC9355583", "about": "“Validation of the solution structure of dimerization domain of PRC1” (PLoS ONE, 2022)", "proteins": {"B1": {"name": "PRC1 dimerization domain (PRC1-DD, aa: 1-65) (domain or fragment, human, UniProt O43663-1 1-65, looked up)", "chain": "MRRSEVLAEESIVCLQKALNHLREIWELIGIPEDQRLQRTEVVKKHIKELLDMMIAEEESLKERL", "notes": "Protein Regulator of Cytokinesis 1 (PRC1), human, isoform 1 (NP_003972; full length 620 residues), N-terminal dimerization domain, residues 1-65; Cloned between NdeI and XhoI of pET-21a with a C-terminal His-tag; no cleavage of the tag is described; For NMR the protein was 15N- or 15N/13C-labelled; also called DD WT; PRC-DD; source: E. coli BL21 (DE3) or Rosseta (DE3), purified (His-Trap HP, …)"}}, "molecular_target": "the molecule itself", "assay": "cross-linking; PEG5 cross-linker (0.1 M-1 M), protein at 20 nM and 50 nM, 50 mM PBS, 50 mM NaCl, pH 7.0, 25 °C, 30 min, read by SDS-PAGE", "data": [{"protein": "B1", "values": [{"measurement": "stoichiometry N", "result": 2}]}]}
